Data as given in paper PMC12664392 (iScience, 2025).
Residue numbers refer to the chain shown, from its start.

B1: NY_1xCD3 (bispecific DARPin T cell engager: HLA-A*0201/NY-ESO1(157-165)-specific DARPin NY_1 linked to a CD3ε-specific DARPin) (designed binder)
chain: DLGKKLLQAARAGQLDEVRELLKAGADVNAKDLIGVTPLHLAAFSGHLEIVEVLLKASADVNAKDVSGRTPLHVAAKHGHLEIVEVLLKAGADVNAKDLIGFTPLHLAAQFGHLEIVEVLLKAGADVNAQDKSGKTPADLAARAGHQDIAEVLQKAAGSPTPTPTTPTPTPTTPTPTPTGSDLGQKLLEAAWAGQDDEVRELLKAGADVNAKNSRGWTPLHTAAQTGHLEIFEVLLKAGADVNAKNDKRVTPLHLAAALGHLEIVEVLLKAGADVNARDSWGTTPADLAAKYGHQDIAEVLQKAA
B2: CD3ε-specific DARPin version 1 (designed binder)
chain: DLGQKLLEAAWAGQDDEVRELLKAGADVNAKNSRGWTPLHTAAQTGHLEIFEVLLKAGADVNAKDDKGVTPLHLAAALGHLEIVEVLLKAGADVNAQDSWGTTPADLAAKYGHEDIAEVLQKAA
notes: four repeats (N-cap/ IR1/ IR2/ C-cap) joined in the printed order; also called CD3-v1; variant-1 (v1)
B3: CD3ε-specific DARPin version 2 (designed binder)
chain: B2 chain with D65N, G68R, Q97R, E114Q
notes: four repeats (N-cap/ IR1/ IR2/ C-cap) joined in the printed order; also called CD3-v2; CD3v2
B4: CD3ε-specific DARPin version 3 (designed binder)
chain: B2 chain with D15L, E20I, D65T, D66N, G68R, Q97R, S99T, E114R
notes: four repeats (N-cap/ IR1/ IR2/ C-cap) joined in the printed order; also called CD3-v3; CD3v3

How the values were obtained:
[1] = target: HLA-A*0201/NY-ESO1(157-165)(9V) complex, refolded and biotinylated (human, p9C to valine (9V) (stands in the printed letters), biotin on the Avi tag); experiment: SPR; ProteOn; the methods tell an inverse set-up (MRGS-6His tagged DARPin captured by an immobilised RGS-His antibody on a GLC chip) and also HLA-A*0201/peptide targets on a neutravidin chip at different dilutions; HEPES buffer; settings: both partners purified
CD3ε = CD3ε (UniProt P07766 23-207, SPR construct not described; extracellular domain taken by convention from the UniProt topology. In cell assays CD3ε is full mature chain in the TCR/CD3 complex); experiment: SPR; Listed KD-values were obtained by surface plasmon resonance; format, CD3ε construct and conditions not told
CD3ε, sequence (P07766 23-207): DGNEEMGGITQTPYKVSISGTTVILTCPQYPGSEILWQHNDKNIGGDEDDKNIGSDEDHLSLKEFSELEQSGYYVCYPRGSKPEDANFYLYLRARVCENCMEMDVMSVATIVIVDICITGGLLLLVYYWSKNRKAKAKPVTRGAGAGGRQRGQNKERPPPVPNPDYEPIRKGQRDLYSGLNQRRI

| Binder | Kd [1] | koff [1] | kon [1] | Kd (CD3ε) |
| --- | --- | --- | --- | --- |
| B1 | 1.23 nM | 0.00113 s⁻¹ | 925000 M⁻¹ s⁻¹ | – |
| B2 | – | – | – | 35 ± 21 nM |
| B3 | – | – | – | 14 ± 3 nM |
| B4 | – | – | – | 6 nM |
